From paper PMC2424011
One block for each molecule: values may come before it.

Tests used:
[1] = target: mouse recombinant sFRP-3 (R&D) (mouse) (UniProt P97401); assay: other fluorescence titration; competition: 250 nM native EGF added to 25 nM EGFAlexa488 prior to 100 nM sFRP-3, in PBS; spectrum of Alexa488, peak at 517 nm
[2] = target: Alexa488-conjugated EGF; assay: as above

- decrease of the EGFAlexa488 absorbance value at the emission peak when native EGF was added before sFRP-3 [1]: 7 units
Molecule: recombinant mouse EGF (ligand)

- decrease of the EGFAlexa488 absorbance value at the emission peak [2]: 10 units
B1: mouse recombinant sFRP-3 (R&D) (natural protein)
chain: AACEPVRIPLCKSLPWNMTKMPNHLHHSTQANAILAMEQFEGLLGTHCSPDLLFFLCAMYAPICTIDFQHEPIKPCKSVCERARQGCEPILIKYRHSWPESLACDELPVYDRGVCISPEAIVTADGADFPMDSSTGHCRGASSERCKCKPVRATQKTYFRNNYNYVIRAKVKEVKMKCHDVTAVVEVKEILKASLVNIPRDTVNLYTTSGCLCPPLTVNEEYVIMGYEDEERSRLLLVEGSIAEKWKDRLGKKVKRWDMKLRHLGLGKTDASDSTQNQKSGRNSNPRPARS
